Results from the supplement of paper PMC9170038.

Tested on: MS2 coat protein
Assay: apparent KD of MS2 coat protein; designed switch direction (-1 OFF switch, 1 ON switch): -1; higher = weaker reporter binding
Procedure, shortened: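 The apparent KD reported per design is the median over clusters of curve fits to normalised cluster fluorescence. The RNA switches were transcribed on Illumina chips by stalled E. coli RNA polymerase. SNAP-549-labelled MS2 coat protein was titrated from 0.7 or 1.5 nM, doubling up to 3 µM, in Tris-HCl pH 7.5 buffer containing KCl, MgCl2, BSA, DTT, tRNA and Tween-20, with no input, 200 uM small-molecule ligand, or an oligonucleotide input.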

[1] = Eterna round: R95, input ligand: FMN 200 uM
[2] = Eterna round: R95, input ligand: microRNA oligo, concentration not stated
[3] = Eterna round: R95, input ligand: none
[4] = input ligand: microRNA oligo, concentration not stated

Sequence	apparent KD of MS2 coat protein (input ligand: FMN 200 uM)	apparent KD of MS2 coat protein (input ligand: none)	apparent KD of MS2 coat protein [1]	apparent KD of MS2 coat protein [2]	apparent KD of MS2 coat protein [3]	apparent KD of MS2 coat protein [4]
GCCGAAAGUGUGAGGAUAUACCUAUGGAUACAUAGGUAGAAGGCACAUGAGGAUCACCCAUGUGUCCAAACGGC [Eli bmx4 4.23] (Eterna round: R97, puzzle: Brourd's mod of Exclusion 4)	54 nM	21.7 nM	–	–	–	–
GGAUCACAUGUGAGGAUAUGCUGGUCCUUGGAUCAGCAGAAGGCACAUGAGGAUCACCCAUGUGAUCAAGAUCC [Eli bmx4 4.78] (Eterna round: R97, puzzle: Brourd's mod of Exclusion 4)	22.2 nM	37.1 nM	–	–	–	–
CAUAAGUGAGGAUAUCCUGGCCCUAUGCGUUAGGCGCGCUAGGAGAAGGCACAUGAGGAUCACCCAUGUCUCUC [Eternabot (L1) Solution 21] (Eterna round: R97, puzzle: Exclusion 4)	76.6 nM	29.7 nM	–	–	–	–
AAAUAAGAAGGAUAUACAAAUUAAAAGGUCCUUAAGGCAAGACAUGAGGAUCACCCAUGUAGAAGGUCUGAAAA [Teati] (puzzle: Exclusion 2)	–	–	39.5 nM	23 nM	22.6 nM	–
UAUUAGCAAGCAAGAUCCCACAUGAGGAUCACCCAUGUGCUCGUCGCAUCCAGAAUUACUGGGUGCGCUCGUCUUAU [Winner reversed engineered 16] (Eterna round: R97, puzzle: Sensor, turn-off variant 1)	168 nM	169 nM	–	–	–	–
AACAUGGCAGGAUAUUGAAAAUUGCACUUGAGGAUCACCCAAGUGGUUCUGCGGGCGAAGUAAGAAGGGCCUAAAA [Xeraabi] (Eterna round: R97, puzzle: Exclusion 5)	232 nM	27.3 nM	–	–	–	–
UAUUAGCAAGCGAGAUCCCACAUGAGGAUCACCCAUGUAAAGCAUCCAGAAUUACUGGGUGCAAAAGCUCGUCUUAU [Winner reversed engineered 6] (Eterna round: R97, puzzle: Sensor, turn-off variant 1)	29.4 nM	31.7 nM	–	–	–	–
AAACAGGGAGGAUAUACAUAGAUCCUCUAACCUAAUUGGUCACAUGAGGAUCACCCAUGUAGAAGGCCCUUAGG [Enquanes] (puzzle: Exclusion 2)	–	–	–	13.6 nM	–	–
AGUAGUAGUAUCCGAUCCUACAUGAGGAUCACCCAUGUAGCUAGACGUGCACGCGAUGCUCGUCAGACUACCGGAUG [salish99_TOv1_r3_041] (puzzle: Sensor v3, turn-off variant 1)	–	–	23.7 nM	23 nM	29.6 nM	–
AGAGUACUGCGAGGAUAUACAUGAGGAUCACCCAUGUGGUGGUGUGAGGCAAAGCCUCACACCAUGUAGAAGGCGCAGUACUCA [Mat - Exclusion NG 2 - Mod of JL - D20] (Eterna round: R96, puzzle: Exclusion NG 2)	159 nM	42.3 nM	–	–	–	26.6 nM
AUGUAACAUGAGGAUCACCCAUGUGAGGAUAUGCGAAUGAAUGAAUGAAUGAAUGUUAGCAGAAGGCACAAGUA [Default title] (Eterna round: R97, puzzle: Exclusion 1)	59.6 nM	44.3 nM	–	–	–	–
GGAAGUAGAAACCGAUCCUACAUGAGGAUCACCCAUGUAGCAAGACGUGCACGCGAAGCUCGUCAGACUACCAGAAA [salish99_TOv1_r3_009] (puzzle: Sensor v3, turn-off variant 1)	–	–	301 nM	286 nM	293 nM	–
UUAUUUCAAGCAAGAUCCUACAUGAGGAUCACCCAUGUGCUCGUCUUAUAAGGUACAGUGACGAAAGUCACAGUACC [Sensor 3, v1 - 000] (puzzle: Sensor v3, turn-off variant 1)	–	–	173 nM	152 nM	202 nM	–
CUAUGCAAAGUAAGGAUAUGCUUCCGGAAACGGAGGCAGAAGGUACAUGAGGAUCACCCAUGUUAAACGCAUAG [Explosion 4 - Jieux - Brourd's mod of Exclusion 4] (Eterna round: R97, puzzle: Brourd's mod of Exclusion 4)	16.8 nM	12.8 nM	–	–	–	–
GAAAAGAAGCUAGGAUAUGCAUGACGGAUACCCGUGAGCACGUAGCAGACAUGAGGAUCACCCAUGUAGAAGGAGCGAAGAAAU [Veteriat] (Eterna round: R96, puzzle: Exclusion NG 2)	251 nM	52.8 nM	–	–	–	43.6 nM
GUCUAGCGAGGAUAUUGCAGACGAAACAUGAGGAUCACCCAUGUGGCCUUGUGCCGUGUGCAAGAAGGCGCGAGGC [Gelelaor] (Eterna round: R97, puzzle: Exclusion 5)	297 nM	268 nM	–	–	–	–
GCGCAAACGCCAAAAGGCGAAAUUACAUGAGGAUCACCCAUGUAGGAUAUCGAUUGCUUUGCAGUCGAGAAGGACAUGAUGCGC [JL ENG3 3.80 Mod 1] (Eterna round: R96, puzzle: Exclusion NG 3)	–	–	–	–	–	13.6 nM

Sequence	apparent KD of MS2 coat protein (input ligand: FMN 200 uM)	apparent KD of MS2 coat protein (input ligand: none)	apparent KD of MS2 coat protein [1]	apparent KD of MS2 coat protein [2]	apparent KD of MS2 coat protein [3]	apparent KD of MS2 coat protein [4]
CCGCGUGAUUAGGAUAUCAAACUAGCGUGUACAUGAGAAGGGAUCACAUGAGGAUCACCCAUGUAAGGGAUCCU [Eternabot (L1) Solution 69] (Eterna round: R97, puzzle: Exclusion 6)	93.2 nM	56.1 nM	–	–	–	–
GGCAUGCAAGGAUAUACUUGCAGUGAUGUUCGAUAAAUUCUACUUGAGGAUCACCCAAGUAGAAGGUGCAUGCC [Exclusion 2 (Mod4 JL EX2 4.74 Vienna UCT mod of Mamaed)] (Eterna round: R97, puzzle: Exclusion 2)	15.2 nM	27.3 nM	–	–	–	–
CCUCCGUAUUAGGAUAUCGUCCCGGAAACGGGACGAGAAGGAAUGACAUGAGGAUCACCCAUGUUAACGUGAUG [Mod of Brourd 20 - Jieux - Exclusion 6] (Eterna round: R97, puzzle: Exclusion 6)	48.9 nM	20.7 nM	–	–	–	–
AAAUACAAGUAAAGAUCCUACAUGAGGAUCACCCAUGUGCUCGUCUUAUAAAGUACUAUCACGAAAGUGAUAGUACA [Sensor 3, v1 - 20] (puzzle: Sensor v3, turn-off variant 1)	–	–	88.6 nM	13.9 nM	112 nM	–
CUGAGGUAGCGGUCCUAUGACAUGAGGAUCACCCAUGUACCUUGCUUUGAGCAAUUUGCUCGUCUUAUGAUUCUCGG [Mat - Sensor v3 - turn-off var 1 - JL Mod - D46] (puzzle: Sensor v3, turn-off variant 1)	–	–	446 nM	468 nM	533 nM	–
GGAAAUCAUGUAGGAUAUGCGUGGCGAAGCUAUGCAGAAGGACAUGAGGAUCACCCAUGUGCUUCCGUCUGCGUACAGACGGUA [Mat - Exclusion NG 1 - Mod of JL - D19] (Eterna round: R96, puzzle: Exclusion NG 1)	80.2 nM	143 nM	–	–	–	78.5 nM
CCUGCGUGAGGAUAUACAUGAGGAUCACCCAUGUCACAAUUAACACACUCCGCCUCACGUAGAAGGCACGCAUA [Tienarra] (Eterna round: R97, puzzle: Exclusion 3)	23.1 nM	13.6 nM	–	–	–	–
UUGUUACAUGAGGAUCACCCAUGUGAGGAUAUGAGUCAGUCACGGUGACGUGGCUGACUCAGAAGGCACAAAGG [Mat - Exclusion 1 - JL Mod - D40] (Eterna round: R97, puzzle: Exclusion 1)	310 nM	120 nM	–	–	–	–
GUCUUACAUGAGGAUCACCCAUGUGAGGAUAUGGAUUCGCUGGCCGUAGCCAGUGGAUCCAGAAGGCGCGUGAU [JL-ex1-4.20] (Eterna round: R97, puzzle: Exclusion 1)	67 nM	62.5 nM	–	–	–	–
ACAUGAGGAUCACCCAUGUAAUGAUGGGUACUAUAUUAUUCGUAGGAUAUCGUUGUUAGUUUGUUCGAGAAGGACGUUUGCCUU [JR_ExcNG3_Sub055] (Eterna round: R96, puzzle: Exclusion NG 3)	–	–	–	–	–	824 nM
UUUUAACAUGAGGAUCACCCAUGUGAGGAUAUCGUUUUUUAUAUUAAUAUUAAUAAAACGAGAAGGCACAUUUU [JMF 10] (puzzle: Exclusion 1)	–	–	–	121 nM	–	–
AAGCUCACACGCUCGUCUUACAUGAGGAUCACCCAUGUCGCCGAGCUUCACAGGCUGAAGCUCAUAUAGGGUCAUGA [Eternabot (L2) Solution 26] (Eterna round: R97, puzzle: Sensor, turn-off variant 1)	85.1 nM	91.7 nM	–	–	–	–
GAGACAGAAGGAUAUACGUCCGCGAGUGCGAUGCGCUUGGGACAUGAGGAUCACCCAUGUAGAAGGUCUAACCC [Eternabot (L1) Solution 89] (Eterna round: R97, puzzle: Exclusion 2)	318 nM	251 nM	–	–	–	–
UUUGUUUAUGUAGGAUAUGCCUGGCGUGCCUUCGCAGAAGGACAUGAGGAUCACCCAUGUAUUGCGGUCUGCGUUCAGAUCGCU [salish99_ExNG1_r4_030] (Eterna round: R96, puzzle: Exclusion NG 1)	46.8 nM	41.8 nM	–	–	–	29.1 nM
GUAGAGUCAGGAUAUACAAGAUCGAUAGAUCAAAGGUCCAUACAUGAGGAUCACCCAUGUAGAAGGGACUCUAC [Mat - Exclusion 2 - Eli Mod - D9] (Eterna round: R97, puzzle: Exclusion 2)	37.2 nM	17.9 nM	–	–	–	–
AAGUACCGUCACGAUAGUGAUGGUACAACAAGUGGUGAAACAUGAGGAUCACCCAUGUCCUCAAUUGCUCGUCUUAU [Sensor 3 - 85] (puzzle: Sensor v3, turn-off variant 2)	–	–	1030 nM	231 nM	999 nM	–
